For data set [1], the system named is N=C(N)NCCC[C@H](N)C(=O)O. The data set can be described thus: Enzyme kinetics (Km), citrulline detection by DAM-TSC assay. It counts as biochemical, Mycoplasma arginini. The following applies: other: substrate arginine (62.5-2000 μM), pH 7.4. The method, then:
(§1) To determine the enzyme activity for wild-type ADI and AAD fusion protein in the present invention, the diacetyl monoxime (DAM)-thiosemicarbazide (TSC) assay for citrulline detection is used. The reaction is shown below. L-Arginine argininedeiminase(ADI)orAADfusion>L-Citrulline+Ammonia
(§2) This assay is run by adding sample to a color reagent, which is made by mixing acidic ferric chloride solution with DAM-TSC solution. […] The reaction mixture is heated at 100° C. for […] to develop the color and read at 540 nm (light path=1 cm). A standard curve is constructed using various concentrations of citrulline. One unit of the ADI native enzyme is the amount of enzyme activity that converts 1 μmol of arginine to 1 μmol of citrulline per minute at 37° C. under the assay conditions. The specific activities of wild-type ADI, pegylated ADI (Ensor et al., Cancer Res. 62:5443-5450, 2002) and AAD fusion protein in the present invention are about 20, 15 and 19 U/mg (at pH 7.4, physiological pH), respectively. The specific activities for wild-type ADI and AAD fusion protein at different pH values (in a range from pH 5.5 to 9.5) are also determined, and the optimum pH is at 6.5.
(§3) The Michaelis constant Km is the substrate concentration at which the reaction rate is at half-maximum, and is an inverse measure of the substrate's affinity for the enzyme. […]

The subject of data set [2] is N=C(N)NCCC[C@H](N)C(=O)O. The description is as above. The data set is classed as biochemical, Bacillus cereus. Conditions: other: substrate arginine (62.5-2000 μM), pH 7.4. The method, then: as §1, §2, §3

One may read the Km as the concentration of substrate that gives half-maximal velocity. Regarding “AAD fusion protein His-ABD-PolyN-ADI (FIG. 3E), SEQ ID NO: 40, ADI originated from Mycoplasma arginini (Mycoplasmopsis arginini)”, the Km in data set [1] came out at 4.1 µM.

For the substance “AAD fusion protein His-ABD-PolyN-bcADI (FIG. 3F), SEQ ID NO: 41, ADI originated from Bacillus cereus (Bacillus cereus AH820)”, the Km in data set [2] was 132 µM.

These data come from patent publication USRE48805E1, “Method for cancer targeting treatment and detection of arginine using albumin-binding arginine deiminase fusion protein” (Vision Global Holdings Ltd., priority 2013, dated 2021).
